The source of these data is patent US20260167721A1 (ABLEXIS, published 2026).

Assay [1] addresses T1, recombinant CD3 proteins (UniProt P07766 23-126).
T1 construct: elsewhere it uses human CD3 E/D and E/G heterodimers
Description: Octet BLI, recombinant CD3; Full R^2 0.9882.

Assay [2] has as its target T1, recombinant CD3 proteins. Kind of assay: Octet BLI, recombinant CD3; Full R^2 0.9905. On the technique in general: Biolayer interferometry detects binding as a change in optical thickness at a sensor tip.
Assay [3] has as its target T1, recombinant CD3 proteins. Description: Octet BLI, recombinant CD3; Full R^2 0.987.
For assay [4], the target named is T1, recombinant CD3 proteins. Kind of assay: Octet BLI, recombinant CD3; Full R^2 0.8253.
Assay [5] has as its target T1, recombinant CD3 proteins. Kind of assay: Octet BLI, recombinant CD3; Full R^2 0.9881.

T1 sequence (P07766 23-126): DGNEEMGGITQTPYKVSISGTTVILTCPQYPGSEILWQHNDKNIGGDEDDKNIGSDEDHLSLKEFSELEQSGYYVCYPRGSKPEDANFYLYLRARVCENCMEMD

B1: CD3 × CD33-BspAb67 (bispecific antibody)
chain 1: not shown
chain 2: EVQLVQSGAEVKKPGSSVKVSCKASGYTITDSNIHWVRQAPGQSLEWIGYIYPYNGGTDYNQKFKNRATLTVDNPTNTAYMELSSLRSEDTAFYYCVNGNPWLAYWGQGTLVTVSSASTKGPSVFPLAPSSKSTSGGTAALGCLVKDYFPEPVTVSWNSGALTSGVHTFPAVLQSSGLYSLSSVVTVPSSSLGTQTYICNVNHKPSNTKVDKRVEPKSCDKTHTCPPCPAPEFEGGPSVFLFPPKPKDTLMISRTPEVTCVVVDVSHEDPEVKFNWYVDGVEVHNAKTKPREEQYNSTYRVVSVLTVLHQDWLNGKEYKCKVSNKALPASIEKTISKAKGQPREPQVCTLPPSREEMTKNQVSLSCAVKGFYPSDIAVEWESNGQPENNYKTTPPVLDSDGSFFLVSKLTVDKSRWQQGNVFSCSVMHEALHNRFTQKSLSLSPGK
chain 3: DIQLTQSPSTLSASVGDRVTITCRASESLDNYGIRFLTWFQQKPGKAPKLLMYAASNQGSGVPSRFSGSGSGTEFTLTISSLQPDDFATYYCQQTKEVPWSFGQGTKVEVKRTVAAPSVFIFPPSDEQLKSGTASVVCLLNNFYPREAKVQWKVDNALQSGNSQESVTEQDSKDSTYSLSSTLTLSKADYEKHKVYACEVTHQGLSSPVTKSFNRGEC
In the case of B1, in the assay with recombinant CD3 proteins [1], the Kd – broadly, a measure of binding affinity in units of concentration – worked out at 5.57 nM; the off-rate constant (koff) (commonly the first-order rate constant of dissociation) is 0.00234 s⁻¹; the kon (usually a measure of how fast the partners come together) was found to be 421000 M⁻¹ s⁻¹.

B2: CD3 × CD33-BspAb80 (bispecific antibody)
chain 1: QVQLQESGPGLVKPSETLSLTCTVSGGSISSYYWSWIRQPAGKCLEWIGRIYTSGSTKYNPSLKSRVTMSVDTSKNQFSLKLISVTAADTAVYFCARERIRDLYFDYWGQGTLVTVSSGGGGSGGGGSGGGGSGGGGSNFMLTQPHSVSESPGKTVTISCTRTSGSIASNYVQWYQQRPGSSPTTVIYEDNQRPSGVPDRFSGSIDSSSNSASLTISGLKTEDEAAYYCQSYDRSNRVFGCGTKLTVLDKTHTCPPCPAPEFEGGPSVFLFPPKPKDTLMISRTPEVTCVVVDVSHEDPEVKFNWYVDGVEVHNAKTKPREEQYNSTYRVVSVLTVLHQDWLNGKEYKCKVSNKALPASIEKTISKAKGQPREPQVYTLPPCREEMTKNQVSLWCLVKGFYPSDIAVEWESNGQPENNYKTTPPVLDSDGSFFLYSKLTVDKSRWQQGNVFSCSVMHEALHNHYTQKSLSLSPGK
chain 2: EVQLVQSGAEVKKPGSSVKVSCKASGYTITDSNIHWVRQAPGQSLEWIGYIYPYNGGTDYNQKFKNRATLTVDNPTNTAYMELSSLRSEDTAFYYCVNGNPWLAYWGQGTLVTVSSASTKGPSVFPLAPSSKSTSGGTAALGCLVKDYFPEPVTVSWNSGALTSGVHTFPAVLQSSGLYSLSSVVTVPSSSLGTQTYICNVNHKPSNTKVDKRVEPKSCDKTHTCPPCPAPEFEGGPSVFLFPPKPKDTLMISRTPEVTCVVVDVSHEDPEVKFNWYVDGVEVHNAKTKPREEQYNSTYRVVSVLTVLHQDWLNGKEYKCKVSNKALPASIEKTISKAKGQPREPQVCTLPPSREEMTKNQVSLSCAVKGFYPSDIAVEWESNGQPENNYKTTPPVLDSDGSFFLVSKLTVDKSRWQQGNVFSCSVMHEALHNRFTQKSLSLSPGK
chain 3: DIQLTQSPSTLSASVGDRVTITCRASESLDNYGIRFLTWFQQKPGKAPKLLMYAASNQGSGVPSRFSGSGSGTEFTLTISSLQPDDFATYYCQQTKEVPWSFGQGTKVEVKRTVAAPSVFIFPPSDEQLKSGTASVVCLLNNFYPREAKVQWKVDNALQSGNSQESVTEQDSKDSTYSLSSTLTLSKADYEKHKVYACEVTHQGLSSPVTKSFNRGEC
For the molecule B2, in the assay with recombinant CD3 proteins [2], the dissociation constant (Kd) stood at 6.06 nM, the koff is 0.00186 s⁻¹ and the on-rate constant (kon) came to 308000 M⁻¹ s⁻¹.

B3: CD3 × CD33-BspAb82 (bispecific antibody)
chain 1: EVQLVESGGGLVKPGGSLRLSCAASGLTFSTYSMNWVRQAPGKCLEWVSSISSSGSYVYYADSVKGRFTMSRDNAKNSLYLQMNSLRAEDTAVYYCARERRELLFDYWGQGTLVTVSSGGGGSGGGGSGGGGSGGGGSNFMLTQPHSVSESPGKTVTISCTRSSGSIASNYVQWYQQRPGSSPTSVIYEDNQRPSGVPDRFSGSIDSSSNSASLTISGLKTEDEADYYCQSYDRSNRVFGCGTKLTVLDKTHTCPPCPAPEFEGGPSVFLFPPKPKDTLMISRTPEVTCVVVDVSHEDPEVKFNWYVDGVEVHNAKTKPREEQYNSTYRVVSVLTVLHQDWLNGKEYKCKVSNKALPASIEKTISKAKGQPREPQVYTLPPCREEMTKNQVSLWCLVKGFYPSDIAVEWESNGQPENNYKTTPPVLDSDGSFFLYSKLTVDKSRWQQGNVFSCSVMHEALHNHYTQKSLSLSPGK
chain 2: EVQLVQSGAEVKKPGSSVKVSCKASGYTITDSNIHWVRQAPGQSLEWIGYIYPYNGGTDYNQKFKNRATLTVDNPTNTAYMELSSLRSEDTAFYYCVNGNPWLAYWGQGTLVTVSSASTKGPSVFPLAPSSKSTSGGTAALGCLVKDYFPEPVTVSWNSGALTSGVHTFPAVLQSSGLYSLSSVVTVPSSSLGTQTYICNVNHKPSNTKVDKRVEPKSCDKTHTCPPCPAPEFEGGPSVFLFPPKPKDTLMISRTPEVTCVVVDVSHEDPEVKFNWYVDGVEVHNAKTKPREEQYNSTYRVVSVLTVLHQDWLNGKEYKCKVSNKALPASIEKTISKAKGQPREPQVCTLPPSREEMTKNQVSLSCAVKGFYPSDIAVEWESNGQPENNYKTTPPVLDSDGSFFLVSKLTVDKSRWQQGNVFSCSVMHEALHNRFTQKSLSLSPGK
chain 3: DIQLTQSPSTLSASVGDRVTITCRASESLDNYGIRFLTWFQQKPGKAPKLLMYAASNQGSGVPSRFSGSGSGTEFTLTISSLQPDDFATYYCQQTKEVPWSFGQGTKVEVKRTVAAPSVFIFPPSDEQLKSGTASVVCLLNNFYPREAKVQWKVDNALQSGNSQESVTEQDSKDSTYSLSSTLTLSKADYEKHKVYACEVTHQGLSSPVTKSFNRGEC
Regarding B3, in the assay with recombinant CD3 proteins [3], the Kd worked out at 18.7 nM, the koff was determined as 0.00536 s⁻¹ and the kon is 287000 M⁻¹ s⁻¹.

B4: CD3 × CD33-BspAb70 (bispecific antibody)
chain 1: EVQLVESGGGLVKPGGSLRLSCAASGFTFSSYSMKWVRQAPGKCLEWVSSISSSSSYIYYADSVKGRFTISRDNAKNSLYLQMNSLRAEDTAVYYCARDRGELTLWYWGQGTLVTVSSGGGGSGGGGSGGGGSGGGGSSYELTQPPSVSVSPGQTARITCSGDALPKKYAYWYQQKSGQAPVLVIYEDSKRPSGIPERFSGSSSGTMATLTISGAQVEDEADYYCYSTDSSGNHWVFGCGTKLTVLDKTHTCPPCPAPEFEGGPSVFLFPPKPKDTLMISRTPEVTCVVVDVSHEDPEVKFNWYVDGVEVHNAKTKPREEQYNSTYRVVSVLTVLHQDWLNGKEYKCKVSNKALPASIEKTISKAKGQPREPQVYTLPPCREEMTKNQVSLWCLVKGFYPSDIAVEWESNGQPENNYKTTPPVLDSDGSFFLYSKLTVDKSRWQQGNVFSCSVMHEALHNHYTQKSLSLSPGK
chain 2: EVQLVQSGAEVKKPGSSVKVSCKASGYTITDSNIHWVRQAPGQSLEWIGYIYPYNGGTDYNQKFKNRATLTVDNPTNTAYMELSSLRSEDTAFYYCVNGNPWLAYWGQGTLVTVSSASTKGPSVFPLAPSSKSTSGGTAALGCLVKDYFPEPVTVSWNSGALTSGVHTFPAVLQSSGLYSLSSVVTVPSSSLGTQTYICNVNHKPSNTKVDKRVEPKSCDKTHTCPPCPAPEFEGGPSVFLFPPKPKDTLMISRTPEVTCVVVDVSHEDPEVKFNWYVDGVEVHNAKTKPREEQYNSTYRVVSVLTVLHQDWLNGKEYKCKVSNKALPASIEKTISKAKGQPREPQVCTLPPSREEMTKNQVSLSCAVKGFYPSDIAVEWESNGQPENNYKTTPPVLDSDGSFFLVSKLTVDKSRWQQGNVFSCSVMHEALHNRFTQKSLSLSPGK
chain 3: DIQLTQSPSTLSASVGDRVTITCRASESLDNYGIRFLTWFQQKPGKAPKLLMYAASNQGSGVPSRFSGSGSGTEFTLTISSLQPDDFATYYCQQTKEVPWSFGQGTKVEVKRTVAAPSVFIFPPSDEQLKSGTASVVCLLNNFYPREAKVQWKVDNALQSGNSQESVTEQDSKDSTYSLSSTLTLSKADYEKHKVYACEVTHQGLSSPVTKSFNRGEC
As for B4, in the assay with recombinant CD3 proteins [4], the Kd turned out to be 9.11 nM, the koff was found to be 0.00554 s⁻¹ and the kon worked out at 609000 M⁻¹ s⁻¹.

B5: CD3 × CD33-BspAb81 (bispecific antibody)
chain 1: QVQLQESGPGLVKPSQTLSLTCTVSGGSISSGGYYWSWIRQHPGKCLEWIGYIYYSGSTYYNPSLKSRVTISVDTSKDQFSLKLSSVTAADTAVYYCARERKTSLPFDIWGQGTMVTVSSGGGGSGGGGSGGGGSGGGGSNFMLTQPHSVSESPGKTVTISCTRSSGSIASNYVQWYQQRPGSSPTTVIYEDNQRPSGVPDRFSGSIDSSSNSASLTISGLKTEDEAYYYCQSFDSSNRVFGCGTKLTVLDKTHTCPPCPAPEFEGGPSVFLFPPKPKDTLMISRTPEVTCVVVDVSHEDPEVKFNWYVDGVEVHNAKTKPREEQYNSTYRVVSVLTVLHQDWLNGKEYKCKVSNKALPASIEKTISKAKGQPREPQVYTLPPCREEMTKNQVSLWCLVKGFYPSDIAVEWESNGQPENNYKTTPPVLDSDGSFFLYSKLTVDKSRWQQGNVFSCSVMHEALHNHYTQKSLSLSPGK
chain 2: EVQLVQSGAEVKKPGSSVKVSCKASGYTITDSNIHWVRQAPGQSLEWIGYIYPYNGGTDYNQKFKNRATLTVDNPTNTAYMELSSLRSEDTAFYYCVNGNPWLAYWGQGTLVTVSSASTKGPSVFPLAPSSKSTSGGTAALGCLVKDYFPEPVTVSWNSGALTSGVHTFPAVLQSSGLYSLSSVVTVPSSSLGTQTYICNVNHKPSNTKVDKRVEPKSCDKTHTCPPCPAPEFEGGPSVFLFPPKPKDTLMISRTPEVTCVVVDVSHEDPEVKFNWYVDGVEVHNAKTKPREEQYNSTYRVVSVLTVLHQDWLNGKEYKCKVSNKALPASIEKTISKAKGQPREPQVCTLPPSREEMTKNQVSLSCAVKGFYPSDIAVEWESNGQPENNYKTTPPVLDSDGSFFLVSKLTVDKSRWQQGNVFSCSVMHEALHNRFTQKSLSLSPGK
chain 3: DIQLTQSPSTLSASVGDRVTITCRASESLDNYGIRFLTWFQQKPGKAPKLLMYAASNQGSGVPSRFSGSGSGTEFTLTISSLQPDDFATYYCQQTKEVPWSFGQGTKVEVKRTVAAPSVFIFPPSDEQLKSGTASVVCLLNNFYPREAKVQWKVDNALQSGNSQESVTEQDSKDSTYSLSSTLTLSKADYEKHKVYACEVTHQGLSSPVTKSFNRGEC
Consider B5, for which, in the assay with recombinant CD3 proteins [5], the Kd was determined as 69.4 nM, the koff stood at 0.00791 s⁻¹ and the kon came to 114000 M⁻¹ s⁻¹.
